Among the data in patent CN112125972A (SINOCELLTECH LTD, dated 2020) are OD450-blank values, retold here.

Test in all cases: indirect ELISA, VLP coated at 2 μg/mL, antibody at 10 ng/mL
In general terms: In an ELISA, binding on a coated surface is turned into a signal by an enzyme label.

Experiment [1] addresses T1, HPV56 VLP (Human papillomavirus type 56, UniProt P36743 36-534).
T1 construct: also called HPV56完整VLP蛋白
T1 sequence: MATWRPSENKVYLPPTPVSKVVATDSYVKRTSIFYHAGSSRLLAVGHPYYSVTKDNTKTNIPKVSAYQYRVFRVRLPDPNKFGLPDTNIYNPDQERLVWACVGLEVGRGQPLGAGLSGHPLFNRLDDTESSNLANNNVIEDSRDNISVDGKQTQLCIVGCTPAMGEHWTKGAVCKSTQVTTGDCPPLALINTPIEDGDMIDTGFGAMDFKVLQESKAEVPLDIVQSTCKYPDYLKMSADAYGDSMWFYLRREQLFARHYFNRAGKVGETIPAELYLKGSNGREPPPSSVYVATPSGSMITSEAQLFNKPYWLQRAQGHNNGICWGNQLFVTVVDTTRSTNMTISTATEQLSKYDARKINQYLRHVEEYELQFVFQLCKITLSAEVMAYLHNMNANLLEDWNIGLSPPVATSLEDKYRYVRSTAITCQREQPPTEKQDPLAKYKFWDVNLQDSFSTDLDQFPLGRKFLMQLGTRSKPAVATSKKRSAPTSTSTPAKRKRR

Experiment [2] deals with T2, HPV6 VLP (Human papillomavirus type 6, UniProt P69899 1-500).
T2 construct: also called HPV6完整VLP蛋白
T2 sequence: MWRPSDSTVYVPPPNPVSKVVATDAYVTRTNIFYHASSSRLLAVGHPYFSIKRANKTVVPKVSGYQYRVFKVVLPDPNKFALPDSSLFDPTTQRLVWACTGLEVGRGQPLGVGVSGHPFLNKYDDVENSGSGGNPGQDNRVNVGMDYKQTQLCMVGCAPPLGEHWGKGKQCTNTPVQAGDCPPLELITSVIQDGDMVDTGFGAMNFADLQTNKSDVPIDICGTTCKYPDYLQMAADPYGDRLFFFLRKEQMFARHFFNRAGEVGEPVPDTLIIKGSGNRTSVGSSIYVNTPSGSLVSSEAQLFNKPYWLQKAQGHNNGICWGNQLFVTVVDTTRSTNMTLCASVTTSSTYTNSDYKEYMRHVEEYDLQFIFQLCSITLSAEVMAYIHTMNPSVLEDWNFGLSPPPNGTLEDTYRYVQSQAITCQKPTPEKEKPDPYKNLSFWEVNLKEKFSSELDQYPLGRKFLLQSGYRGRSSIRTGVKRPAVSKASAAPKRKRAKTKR

In experiment [3] the target is T3, HPV18 VLP (Human papillomavirus type 18, UniProt P06794 62-568).
T3 construct: also called HPV18完整VLP蛋白
T3 sequence: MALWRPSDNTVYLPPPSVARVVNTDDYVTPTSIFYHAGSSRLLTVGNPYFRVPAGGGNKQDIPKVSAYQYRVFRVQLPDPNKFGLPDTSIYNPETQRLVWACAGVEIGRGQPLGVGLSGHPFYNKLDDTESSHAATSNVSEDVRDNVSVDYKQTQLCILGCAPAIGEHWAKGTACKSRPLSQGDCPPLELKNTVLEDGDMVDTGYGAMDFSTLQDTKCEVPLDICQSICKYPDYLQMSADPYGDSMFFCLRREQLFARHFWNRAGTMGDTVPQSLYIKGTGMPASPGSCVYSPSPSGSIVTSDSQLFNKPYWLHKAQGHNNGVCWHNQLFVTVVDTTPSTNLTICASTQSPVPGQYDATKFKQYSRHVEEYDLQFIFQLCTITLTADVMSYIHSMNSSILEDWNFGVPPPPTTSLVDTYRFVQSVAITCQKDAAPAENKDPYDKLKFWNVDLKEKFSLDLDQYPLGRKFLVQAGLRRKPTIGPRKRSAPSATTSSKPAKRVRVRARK

Experiment [4] deals with T4, HPV11 VLP (Human papillomavirus type 11, UniProt P04012 1-501).
T4 construct: also called HPV11完整VLP蛋白
T4 sequence: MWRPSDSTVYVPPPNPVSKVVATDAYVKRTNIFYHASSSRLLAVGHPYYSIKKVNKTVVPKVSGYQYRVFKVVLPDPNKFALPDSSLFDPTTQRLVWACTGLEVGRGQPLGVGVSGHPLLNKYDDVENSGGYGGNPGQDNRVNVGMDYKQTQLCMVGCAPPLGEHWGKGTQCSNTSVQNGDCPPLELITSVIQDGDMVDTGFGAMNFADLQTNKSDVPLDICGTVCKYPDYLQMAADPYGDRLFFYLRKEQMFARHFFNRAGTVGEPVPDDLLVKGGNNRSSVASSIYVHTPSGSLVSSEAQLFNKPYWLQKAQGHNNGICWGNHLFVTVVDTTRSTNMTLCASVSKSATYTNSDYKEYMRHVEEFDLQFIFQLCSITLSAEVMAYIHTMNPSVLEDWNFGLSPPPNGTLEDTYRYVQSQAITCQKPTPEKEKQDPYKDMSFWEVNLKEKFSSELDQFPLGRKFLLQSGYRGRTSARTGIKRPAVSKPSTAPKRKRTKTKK

B1: HPV 16 R001 (antibody, V domains shown)
VH: QSVKESEGRLVTPGTPLTLTCTASGFTMSRYHMTWVRQAPGKGLEWIGIIYARNSDTYYANWAKGRFTISKTSTTVDLKITSPTIEDTATYFCARVDSDSSGAFDRLDLWGQGTLVTVSS
VL: DPMLTQTAASVEVAVGGTVTIKCQASQSIGGYLSWYQQKPGQRPKLLIYRASTLASGVPSRFKGSGSGTEYTLTFSGVECADAAAYYCQQGYTSSDINNAFGGGTEVVVK
notes: An HRP-labelled form served as detection antibody in the sandwich ELISA; also called HPV16.001; 单克隆抗体HPV 16 R001
B1: the OD450-blank in experiment [1] is 0.003 OD450; in experiment [2], 0.004 OD450; in experiment [3], 0 OD450; in experiment [4], 0.001 OD450.
